Positions count from the first letter of the chain named. Numbers in names are those of the source.
Legend:
Assay type in all cases: biochemical, B. amyloliquefaciens
[1] = substrate: CSCC[C@H](NC(=O)[C@@H]1CCCN1C(=O)[C@H](C)NC(=O)[C@H](C)NC(=O)CCC(=O)O)C(=O)Nc1ccc([N+](=O)[O-])cc1; assay: Kinetics of p-nitroanilide substrate hydrolysis, S156; settings: other: Table XIV, 156 Ser / 166 Gly; value in parentheses; synthetic substrate with label as P-1 amino acid; 37.0 °C
From the text: (§1) Wild-type subtilisin was purified from B. subtilis culture supernatants expressing the B. amyloliquefaciens subtilisin gene (Wells, J.A., et al. (1983) Nucleic Acids Res. 11, 7911-7925) as previously described (Estell, D.A., et al. (1985) J. Biol. Chem. 260, 6518-6521). Details of the synthesis of tetrapeptide substrates having the form succinyl-L-AlaL-AlaL-ProL-[X]-p-nitroanilide (where X is the P1 amino acid) are described by DelMar, E.G., et al. (1979) Anal. Biochem. 99, 316-320. Kinetic parameters, Km(M) and kcat-(s-^1) were measured using a modified progress curve analysis (Estell, D.A., et al. (1985) J. Biol. Chem. 260, 6518-6521). Briefly, plots of rate versus product concentration were fit to the differential form of the rate equation using a non-linear regression algorithm. Errors in kcat and Km for all values reported are less than five percent. The various substrates in Table VIII are ranged in order of decreasing hydrophobicity. Nozaki, Y. (1971), J. Biol. Chem. 246, 2211-2217; Tanford C. (1978) Science 200, 1012).
(§2) Construction of position 156 single mutants were prepared by ligation of the three fragments (1-3) indicated at the bottom of Figure 21. Fragment 3, containing the carboxy-terminal portion of the subtilisin gene including the wild type position 166 codon, was isolated as a 610 bp Sacl-BamHI fragment. Fragment 1 contained the vector sequences, as well as the amino-terminal sequences of the subtilisin gene through codon 151. To produce fragment 1, a unique Kpnl site at codon 152 was introduced into the wild type subtilisin sequence from pS4.5. Site-directed mutagenesis in M13 employed a primer having the sequence 5'-TA-GTC-GTT-GCG-GTA-CCC-GGT-AAC-GAA-3' to produce the mutation. Enrichment for the mutant sequence was accomplished by restriction with Kpnl, purification and self ligation. The mutant sequence containing the Kpnl site was confirmed by direct plasmid sequencing to give pV152. pV152 (-1 µg) was digested with Kpnl and treated with 2 units of DNA polymerase I large fragment (Klenow fragment from Boeringer-Mannheim) plus 50 µM deoxynucleotide triphosphates at 37°C for 30 min. This created a blunt end that terminated with codon 151. The DNA was extracted with 1:1 volumes phenol and CHC13 and DNA in the aqueous phase was precipitated by addition of 0.1 volumes 5M ammonium acetate and two volumes ethanol. After centrifugation and washing the DNA pellet with 70% ethanol, the DNA was lyophilized. DNA was digested with BamHl and the 4.6kb piece (fragment 1) was purified by acrylamide gel electrophoresis followed by electroelution. […] The top strand was synthesized to contain a glutamine codon, and the complementary bottom strand coded for serine at 156. Ligation of heterophosphorylated cassettes leads to a large and favorable bias for the phosphorylated over the non-phosphorylated oligonucleotide sequence in the final segrated plasmid product. Therefore, to obtain Q156 the top strand was phosphorylated, and annealed to the non-phosphorylated bottom strand prior to ligation. Similarly, to obtain S156 the bottom strand was phosphorylated and annealed to the non-phosphorylated top strand. Mutant sequences were isolated after ligation and transformation, and were confirmed by restriction analysis and DNA sequencing as before. To express variant subtilisins, plasmids were transformed into a subtilisin-neutral protease deletion mutant of B. subtilis, BG2036, as previously described. Cultures were fermented in shake flasks for 24 h at 37 ° C in LB media containing […] chloramphenicol and subtilisin was purified from culture supernatants as described. Purity of subtilisin was greater than 95% as judged by SDS PAGE.
(§3) These mutant plasmids designated pS156 and pQ156 and mutant subtilisins designated S156 and Q156 were analyzed with the above synthetic substrates where P-1 comprised the amino acids Glu, Gln, Met and Lys. The results of this analyses are presented in Example 9. […]

[2] = substrate: C[C@H](NC(=O)CCC(=O)O)C(=O)N[C@@H](C)C(=O)N1CCC[C@H]1C(=O)N[C@@H](CCC(=O)O)C(=O)Nc1ccc([N+](=O)[O-])cc1; assay: as above; settings: 37.0 °C
From the text: as §1, §2, §3

[3] = substrate: C[C@H](NC(=O)CCC(=O)O)C(=O)N[C@@H](C)C(=O)N1CCC[C@H]1C(=O)N[C@@H](CCC(N)=O)C(=O)Nc1ccc([N+](=O)[O-])cc1; assay: as above; settings: other: Table XIV, 156 Ser / 166 Gly; value in parentheses; synthetic substrate with label as P-1 amino acid; 37.0 °C
From the text: as §1, §2, §3

[4] = substrate: C[C@H](NC(=O)CCC(=O)O)C(=O)N[C@@H](C)C(=O)N1CCC[C@H]1C(=O)N[C@@H](CCCCN)C(=O)Nc1ccc([N+](=O)[O-])cc1; assay: as above; settings: other: Table XIV, 156 Ser / 166 Gly; value in parentheses; synthetic substrate with label as P-1 amino acid; 37.0 °C
From the text: as §1, §2, §3

[5] = substrate: C[C@H](NC(=O)CCC(=O)O)C(=O)N[C@@H](C)C(=O)N1CCC[C@H]1C(=O)N[C@@H](Cc1ccccc1)C(=O)Nc1ccc([N+](=O)[O-])cc1; assay: as above; settings: other: Table XIII, S156; synthetic substrate with label as P-1 residue; 37.0 °C
From the text: as §1, §2, §3

[6] = substrate: CSCC[C@H](NC(=O)[C@@H]1CCCN1C(=O)[C@H](C)NC(=O)[C@H](C)NC(=O)CCC(=O)O)C(=O)Nc1ccc([N+](=O)[O-])cc1; assay: Kinetics of p-nitroanilide substrate hydrolysis, R166; settings: other: Table XIV, 156 Glu / 166 Arg; value in parentheses; synthetic substrate with label as P-1 amino acid
From the text: as §1
(§4) The construction of subtilisin mutants containing the substitution of the ionic amino acids Asp, Asn, Gln, Lys and Ang are disclosed in EPO Publication No. 0130756. The present example describes the construction of the mutant subtilisin containing Glu at position 166 (E166) and presents substrate specificity data on these mutants. Further data on position 166 and 156 single and double mutants is presented infra.
(§5) Each of these mutants was analyzed with the tetrapeptide substrates, succinyl-L-AlaL-AlaProL-X-p-nitroanilide, where X was Phe, Ala and Glu.

[7] = substrate: C[C@H](NC(=O)CCC(=O)O)C(=O)N[C@@H](C)C(=O)N1CCC[C@H]1C(=O)N[C@@H](CCC(=O)O)C(=O)Nc1ccc([N+](=O)[O-])cc1; assay: as above; settings: other: Table XIV, 156 Glu / 166 Arg; value in parentheses; synthetic substrate with label as P-1 amino acid
From the text: as §1, §4, §5

[8] = substrate: C[C@H](NC(=O)CCC(=O)O)C(=O)N[C@@H](C)C(=O)N1CCC[C@H]1C(=O)N[C@@H](CCC(N)=O)C(=O)Nc1ccc([N+](=O)[O-])cc1; assay: as above; settings: other: Table XIV, 156 Glu / 166 Arg; value in parentheses; synthetic substrate with label as P-1 amino acid
From the text: as §1, §4, §5

[9] = substrate: C[C@H](NC(=O)CCC(=O)O)C(=O)N[C@@H](C)C(=O)N1CCC[C@H]1C(=O)N[C@@H](CCCCN)C(=O)Nc1ccc([N+](=O)[O-])cc1; assay: as above; settings: other: Table XIV, 156 Glu / 166 Arg; value in parentheses; synthetic substrate with label as P-1 amino acid
From the text: as §1, §4, §5

[10] = substrate: C[C@H](NC(=O)CCC(=O)O)C(=O)N[C@@H](C)C(=O)N1CCC[C@H]1C(=O)N[C@@H](CCC(=O)O)C(=O)Nc1ccc([N+](=O)[O-])cc1; assay: Kinetics of p-nitroanilide substrate hydrolysis, K166
From the text: as §1, §4, §5
(§6) K166 is a common replacement amino acid in the 156/166 mutants described herein. The replacement of Lys for GIy166 was achieved by using the synthetic DNA cassette at the top right of Figure 21 which contained the triplet AAA for NNN. This produced fragment 2 with Lys substituting for GIy166.
(§7) These mutants, the single mutant K166, and the S156 and Q156 mutants of Example 8 were analyzed for substitute specificity against synthetic polypeptides containing Phe or Glu as the P-1 substrate residue.

[11] = substrate: C[C@H](NC(=O)CCC(=O)O)C(=O)N[C@@H](C)C(=O)N1CCC[C@H]1C(=O)N[C@@H](Cc1ccccc1)C(=O)Nc1ccc([N+](=O)[O-])cc1; assay: as above; settings: K166
From the text: as §1, §4, §5, §6, §7

[12] = substrate: CSCC[C@H](NC(=O)[C@@H]1CCCN1C(=O)[C@H](C)NC(=O)[C@H](C)NC(=O)CCC(=O)O)C(=O)Nc1ccc([N+](=O)[O-])cc1; assay: as above; settings: other: Table XIV, 156 Glu / 166 Lys; value in parentheses; synthetic substrate with label as P-1 amino acid
[13] = substrate: C[C@H](NC(=O)CCC(=O)O)C(=O)N[C@@H](C)C(=O)N1CCC[C@H]1C(=O)N[C@@H](CCC(N)=O)C(=O)Nc1ccc([N+](=O)[O-])cc1; assay: as above; settings: other: Table XIV, 156 Glu / 166 Lys; value in parentheses; synthetic substrate with label as P-1 amino acid
[14] = substrate: C[C@H](NC(=O)CCC(=O)O)C(=O)N[C@@H](C)C(=O)N1CCC[C@H]1C(=O)N[C@@H](CCCCN)C(=O)Nc1ccc([N+](=O)[O-])cc1; assay: as above; settings: other: Table XIV, 156 Glu / 166 Lys; value in parentheses; synthetic substrate with label as P-1 amino acid
[15] = other: Table XIII, S156, synthetic substrate with label as P-1 residue
[16] = other: Table XIII, K166, synthetic substrate with label as P-1 residue
[17] = other: Table XIII, synthetic substrate with label as P-1 residue

B1: B. amyloliquefaciens subtilisin variant S156 (Glu156 to Ser) (Bacillus amyloliquefaciens; E263S) (protein)
chain: AQSVPYGVSQIKAPALHSQGYTGSNVKVAVIDSGIDSSHPDLKVAGGASMVPSETNPFQDNNSHGTHVAGTVAALNNSIGVLGVAPSASLYAVKVLGADGSGQYSWIINGIEWAIANNMDVINMSLGGPSGSAALKAAVDKAVASGVVVVAAAGNSGTSGSSSTVGYPGKYPSVIAVGAVDSSNQRASFSSVGPELDVMAPGVSIQSTLPGNKYGAYNGTSMASPHVAGAAALILSKHPNWTNTQVRSSLENTTTKLGDSFYYGKGLINVQAAAQ
notes: at various amino acid residues within the mature form of the subtilisin molecule; made in house; host or cells: Bacillus subtilis BG2036
With B1 as the protein, how does the Km [1] read?
The Km was 28.2 µM.

What about the Km [2, 15] of the same protein?
Its Km is 1800 µM.

What about the kcat [2, 15] of the same protein?
The kcat was 0.40 s-^1.

What about the Km ([2]; other: Table XIV, 156 Ser / 166 Gly, value in parentheses, synthetic substrate with label as P-1 amino acid) of the same protein?
Its Km is 1860 µM.

What about the Km [3] of the same protein?
Its Km is 209 µM.

And the Km [4]?
Its Km is 1820 µM.

What about the Km [5] of the same protein?
The Km was 47 µM.

What about the kcat [5] of the same protein?
Its kcat is 34.00 s-^1.

And the kcat/Km [5]?
The kcat/Km was 730000 M⁻¹ s⁻¹.

B2: B. amyloliquefaciens subtilisin variant R166 (Gly166 to Arg) (Bacillus amyloliquefaciens; G273R) (protein)
chain: B1 chain with S156E, G166R
notes: as for B1
Which results are given for B2?
Km [6]: 60.3 µM; Km [7]: 501 µM; Km [8]: 316 µM; Km [9]: 1580 µM

B3: B. amyloliquefaciens subtilisin variant K166 (Gly166 to Lys) (Bacillus amyloliquefaciens; G273K) (protein)
chain: B1 chain with S156E, G166K
notes: as for B1
B3 was tested. Which Km [10, 16] did it give?
The Km was 56 µM.

What about the kcat [10, 16] of the same protein?
The kcat was 0.70 s-^1.

What about the kcat/Km [10, 16] of the same protein?
The kcat/Km was 12000 M⁻¹ s⁻¹.

What about the Km ([10]; other: Table XIV, 156 Glu / 166 Lys, value in parentheses, synthetic substrate with label as P-1 amino acid) of the same protein?
The Km was 56.2 µM.

What about the Km [11, 17] of the same protein?
Its Km is 40 µM.

And the kcat [11, 17]?
Its kcat is 20.00 s-^1.

And the kcat/Km [11, 17]?
Its kcat/Km is 520000 M⁻¹ s⁻¹.

What about the Km ([11]; other: Table XIX) of the same protein?
Its Km is 37 µM.

And the kcat ([11]; other: Table XIX)?
Its kcat is 21 s-^1.

What about the Km [12] of the same protein?
The Km was 35.5 µM.

And the Km [13]?
Its Km is 132 µM.

What about the Km [14] of the same protein?
The Km was 1170 µM.
